{"source": "the supplement of paper PMC12042874", "note": "± gives the uncertainty stated by the source.", "data": [{"assay": "amyloid nucleation score (Sup35N fusion, yeast selection) (log enrichment); library NNK1; higher = more nucleation; inactive = no reads after selection", "in_short": "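The nucleation score is the log enrichment of output over input reads, calculated with DiMSum and centred on the mode score of non-aggregating sequences. Sequences with under 100 input reads were excluded. Reads came from Illumina sequencing of plasmid inserts from psi-negative yeast expressing Sup35N fused to peptides of 20 random codons, induced 24 hours with 100 μM copper sulfate and grown 7 days at 30°C without adenine and uracil.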", "values": [{"substance": "MFNKVSLSVWASFVWKIIIH", "amyloid nucleation score": "-0.654 ± 0.83"}, {"substance": "MFSNILHAHLRAWA", "amyloid nucleation score": "0.53 ± 0.27"}, {"substance": "MFSRF", "amyloid nucleation score": "0.607 ± 0.79"}, {"substance": "MFSSVLIWKY", "amyloid nucleation score": "1.12 ± 0.56"}, {"substance": "MGAVKH", "amyloid nucleation score": "-0.017 ± 0.3"}, {"substance": "MGDSISVFMKSRFCVCTWGG", "amyloid nucleation score": "inactive"}, {"substance": "MGGRSPMELAISRVVVVVKW", "amyloid nucleation score": "inactive"}, {"substance": "MGLFFERSVKCSLF", "amyloid nucleation score": "-0.946 ± 1.1"}, {"substance": "MGLSLPSFW", "amyloid nucleation score": "-0.516 ± 1.7"}, {"substance": "MGNHCLTR", "amyloid nucleation score": "1.12 ± 0.58"}, {"substance": "MGQGLCPRSYMFLVCELIVF", "amyloid nucleation score": "0.818 ± 0.43"}, {"substance": "MHISWPYYRHDIVRRKSCSA", "amyloid nucleation score": "0.011 ± 0.29"}, {"substance": "MINTTMRSDRRNNWLG", "amyloid nucleation score": "2.94 ± 0.064"}, {"substance": "MIRPVFLVFVYMLFCLGNCT", "amyloid nucleation score": "0.383 ± 0.28"}, {"substance": "MISFCSSWKLEQYEWWRRNL", "amyloid nucleation score": "1.35 ± 0.32"}, {"substance": "MITWMYASWYNRPVLVYQFW", "amyloid nucleation score": "0.233 ± 0.28"}, {"substance": "MKVIDFVGFPFMGWRKWKTW", "amyloid nucleation score": "-0.063 ± 0.35"}, {"substance": "MLCFSLVYNGREGYEINLLH", "amyloid nucleation score": "-0.552 ± 0.31"}, {"substance": "MLGLWIVARLVLSVDSQRVE", "amyloid nucleation score": "inactive"}, {"substance": "MLHICCFQSVHLMDWSSH", "amyloid nucleation score": "-0.144 ± 0.67"}, {"substance": "MLHYAWVGLSVNDMVLPEMC", "amyloid nucleation score": "-0.78 ± 0.67"}, {"substance": "MLLIVPLFDSEVVWPGVVWT", "amyloid nucleation score": "-0.235 ± 0.66"}, {"substance": "MLLSH", "amyloid nucleation score": "4.34 ± 0.056"}, {"substance": "MLLWVWMEFY", "amyloid nucleation score": "0.991 ± 0.33"}, {"substance": "MLNELWVQRWINLSLKYDNQ", "amyloid nucleation score": "0.957 ± 0.45"}, {"substance": "MLPQSSSRQLRVGCASLCNM", "amyloid nucleation score": "-0.148 ± 0.6"}, {"substance": "MLRFRCVRQP", "amyloid nucleation score": "0.102 ± 0.35"}, {"substance": "MLRTAMKCWSTSMGDCLEAF", "amyloid nucleation score": "0.619 ± 0.48"}, {"substance": "MLSGP", "amyloid nucleation score": "-0.161 ± 0.67"}, {"substance": "MLWFSGCPRGGQRGVCESQG", "amyloid nucleation score": "0.284 ± 0.55"}, {"substance": "MMLLYCRLIWSPISDRICQF", "amyloid nucleation score": "-0.498 ± 0.42"}, {"substance": "MMVFKVSFKVIKVT", "amyloid nucleation score": "-0.07 ± 0.86"}, {"substance": "MMYSIVRMLAFNAWSMR", "amyloid nucleation score": "0.681 ± 0.49"}, {"substance": "MNDVNLFMEYNKSFYVDFYM", "amyloid nucleation score": "1.61 ± 0.15"}, {"substance": "MNGYLRLHSDTNCSCC", "amyloid nucleation score": "inactive"}, {"substance": "MNRHGYHNIWWYTTSHGLYT", "amyloid nucleation score": "-1.05 ± 2.7"}, {"substance": "MNTLYCWGKCGLVTSLVGLI", "amyloid nucleation score": "0.059 ± 0.73"}, {"substance": "MNYVSMHDYYRVVH", "amyloid nucleation score": "0.128 ± 0.61"}, {"substance": "MPGLWVFASALTQQEGTLEM", "amyloid nucleation score": "-0.251 ± 0.79"}, {"substance": "MPKCSTLNTKVFRPMVWFSV", "amyloid nucleation score": "1.43 ± 0.29"}, {"substance": "MPTRKTMDGYASIEF", "amyloid nucleation score": "-0.486 ± 0.41"}, {"substance": "MPVFSFLWPMKDMPHKVLS", "amyloid nucleation score": "0.364 ± 0.36"}, {"substance": "MQNMNEVSIINVAERVVNGG", "amyloid nucleation score": "inactive"}, {"substance": "MQSLRLTESSGPFSLYFAFI", "amyloid nucleation score": "-0.227 ± 0.81"}, {"substance": "MRAEVALFCGNSASVVCGAW", "amyloid nucleation score": "-0.221 ± 0.34"}, {"substance": "MREELRGSETG", "amyloid nucleation score": "-0.685 ± 0.63"}, {"substance": "MRFYAMGRDVYICCDGNKIL", "amyloid nucleation score": "5.07 ± 0.066"}, {"substance": "MRIHCVN", "amyloid nucleation score": "-0.529 ± 2.1"}, {"substance": "MRISMSVSLLFSYSQYVKLE", "amyloid nucleation score": "-0.238 ± 0.9"}, {"substance": "MRKVYNEWLKTNYYKHMNRV", "amyloid nucleation score": "0.452 ± 0.51"}, {"substance": "MRLHLGWNYEMHRKNRALSI", "amyloid nucleation score": "-0.312 ± 1.4"}, {"substance": "MRLSQGGPLRLPRVTFSRYC", "amyloid nucleation score": "0.027 ± 1.7"}, {"substance": "MRLTNGSCHFVLF", "amyloid nucleation score": "-0.745 ± 1.7"}, {"substance": "MRMISFKTVGALFVYCLSLG", "amyloid nucleation score": "0.313 ± 0.49"}, {"substance": "MRNYGILFPYLFYMSVSRVL", "amyloid nucleation score": "-0.067 ± 1.7"}, {"substance": "MRQAGACNLRQSHVEQVCQQ", "amyloid nucleation score": "0.135 ± 0.38"}, {"substance": "MRSFAFWNYVFGRGMFPVFW", "amyloid nucleation score": "-0.272 ± 0.41"}, {"substance": "MRTRWSIIMDVRYDNSV", "amyloid nucleation score": "1.55 ± 0.21"}, {"substance": "MSAIVSHYLVHCKFQSGNSH", "amyloid nucleation score": "3.63 ± 0.12"}, {"substance": "MSLNRDNDYSKLLFGSKVSQ", "amyloid nucleation score": "0.477 ± 0.43"}, {"substance": "MSLPYVICQQDR", "amyloid nucleation score": "-0.794 ± 1.4"}, {"substance": "MSLSAVSNMVLMKGVGMR", "amyloid nucleation score": "-0.73 ± 0.93"}, {"substance": "MSMDWICVTTYKAWSARLER", "amyloid nucleation score": "0.689 ± 0.26"}, {"substance": "MSNRISLQQLDRCQDDFMA", "amyloid nucleation score": "0.034 ± 0.38"}, {"substance": "MSSHVTHAS", "amyloid nucleation score": "0.495 ± 1"}, {"substance": "MSSLQG", "amyloid nucleation score": "-0.246 ± 1.1"}, {"substance": "MSSSKGVVYDCFCSMWWLLP", "amyloid nucleation score": "0.018 ± 0.73"}, {"substance": "MSYCFF", "amyloid nucleation score": "0.022 ± 0.55"}, {"substance": "MTIQVTIGNYLGLVYFFPLS", "amyloid nucleation score": "1.05 ± 0.97"}, {"substance": "MTMAFRKLFSVVRILMNMRL", "amyloid nucleation score": "0.059 ± 0.3"}, {"substance": "MTMKLFRQD", "amyloid nucleation score": "-0.049 ± 1.1"}, {"substance": "MTPEAL", "amyloid nucleation score": "-0.063 ± 0.43"}, {"substance": "MVDSVMD", "amyloid nucleation score": "-0.21 ± 0.79"}, {"substance": "MVDSYWGWCAMK", "amyloid nucleation score": "1.22 ± 0.61"}, {"substance": "MVGDARFYAANSG", "amyloid nucleation score": "1.14 ± 0.79"}, {"substance": "MVGVLVKVREKAVMGPGQFG", "amyloid nucleation score": "0.804 ± 0.29"}, {"substance": "MVHMCWLTME", "amyloid nucleation score": "0.454 ± 0.25"}, {"substance": "MVKYPVTKNSSLPCSTRLTF", "amyloid nucleation score": "1.01 ± 0.47"}, {"substance": "MVLRHRKCLSAFPWAFHAPY", "amyloid nucleation score": "1.49 ± 0.85"}, {"substance": "MVNWEARQ", "amyloid nucleation score": "0.862 ± 0.64"}, {"substance": "MVRCNYRRRVGGDT", "amyloid nucleation score": "0.905 ± 0.69"}, {"substance": "MVRWFWVVGHQVFTYVRLWR", "amyloid nucleation score": "-0.076 ± 0.74"}, {"substance": "MVSSCWICRALKAYVLQPWV", "amyloid nucleation score": "0.108 ± 0.72"}, {"substance": "MWFRTAST", "amyloid nucleation score": "6.339 ± 0.047"}, {"substance": "MWGFWTFFDGLAYPFVMHKT", "amyloid nucleation score": "0.054 ± 0.53"}, {"substance": "MWLKSNNWRNKADDLQGKVD", "amyloid nucleation score": "0.523 ± 0.58"}, {"substance": "MWTNWDVLPELDGTPRALLW", "amyloid nucleation score": "-0.501 ± 0.99"}]}]}
